Laboratory results reported in patent publication US6858210B1, “Therapeutic and diagnostic domain 1 β2GPI polypeptides and methods of using same” (La Jolla Pharmaceutical Co., priority 1998, dated 2005).
Where two headings read alike, the source gives them in different places.

Experiments:
[1] = system: affinity purified β2GPI-dependent antiphospholipid antibody; test: Competitive inhibition ELISA: recombinant β2GPI proteins compete for antibody binding to coated full length recombinant β2GPI; parameters: species or system human; details: for IC50: read-out: 50% (concentration to give 50% inhibition)
Method: Microtiter plates (MaxiSorp™, Nalge Nunc International, Denmark) were coated with 50 μl of full length recombinant β2GPI at 10 μg/ml in 0.1 M bicarbonate, pH 9.5, incubated overnight at 4° C., washed three times with 0.15 M PBS, pH 7.2, and blocked for one hour at room temperature with 75 μl of 2% Non-fat Dried Milk (Carnation, 2% NFDM). Test inhibitors were diluted in 2% NFDM and 25 μl of each dilution was added to coated wells. Affinity purified β2GPI-dependent antiphospholipid antibody was diluted in 2% NFDM and 25 μl, of a constant concentration, was added to the wells, including a group of wells that had no inhibitor, which acted as the positive controls. The contents of the wells were mixed and the plates were incubated at 37° C. for one hour. The plates were washed three times with PBS, 50 μl of alkaline phosphatase conjugated anti-human IgG, gamma chain specific, (Zymed #62-8422) diluted appropriately in 2% NFDM was added and incubated at 37° C. for one hour. The plates were washed three times with PBS, 50 μl of alkaline phosphatase PPMP chromogenic substrate solution was added and incubated for 30 minutes, at room temperature. The Optical Density, at 550 nm, was determined by reading the plates in a microplate autoreader (Bio-Teck Instruments, model EL3 11). The percent inhibition was determined by dividing the OD550 obtained in the presence of inhibitor by the mean OD550 obtained from the wells without inhibitor and then multiplying by 100 (more particularly, [mean A550 obtained from control wells without inhibitor less A550 of background] minus [A550 obtained in presence of inhibitor less A550 of background] divided by [mean A550 obtained from control wells without inhibitor less A550 of background] times 100).
Seven to nine different recombinant β2GPI mutant proteins were used to determine the antigenic specificity of affinity purified β2GPI-dependent antiphospholipid antibody preparations from 13 different patients. Each mutant recombinant β2GPI protein was tested, in a dose dependent fashion, for its ability to inhibit affinity purified β2GPI-dependent antiphospholipid antibody from binding to full length recombinant β2GPI. The following values were also observed for domain 1 only recombinant protein (1 - - - -; see Table 2 for designations): […]

[2] = system: affinity purified β2GPI-dependent antiphospholipid antibody; test: Direct binding ELISA, nickel chelate-coated wells charged with recombinant β2GPI proteins (no cardiolipin); parameters: species or system human; details: O.D. at 550 nm
Method: Nickel Chelate-coated microwell plates (NCP 010 00 Xenopore Corp. 374 Midland Ave. Saddle Brook, N.J. USA) were coated with 50 μl of serial dilutions of the various recombinant β2GPI, in PBS, at room temperature for 2 hours. The plates were washed three times with PBS and blocked with 75 μl of a 1% gelatin (Sigma #G-2500) in PBS for one hour room temperature. […] The plates were washed three times with PBS, 50 μl of alkaline phosphatase conjugated anti-immunoglobulin (anti-human IgG, gamma chain specific, Zymed #62-8422) or anti-rabbit IgG (Zymed #62-6122) diluted appropriately in 1% gelatin was added and incubated at 37° C. for one hour. The plates were washed three times with PBS, 50 μl of alkaline phosphatase PPMP chromogenic substrate solution was added and incubated for 30 minutes at room temperature. The optical density, at 550 nm, was determined by reading the plates in a microplate autoreader (Bio-Teck Instruments, model EL311).
Seven to nine different recombinant β2GPI mutant proteins were examined to determine if they could support the direct binding of affinity purified β2GPI-dependent antiphospholipid antibody preparations in the absence of anionic phospholipid. All recombinant mutant β2GPI were assayed with affinity purified β2GPI-dependent antiphospholipid antibody preparations from 11 different patients. Each mutant recombinant β2GPI protein was tested, in a dose dependent fashion and GST-6his was included as a negative control. The recombinant mutant β2GPI proteins were bound to nickel coated microtiter plates via their 6-his tail. All recombinant mutant β2GPI proteins tested bound rabbit anti-β2GPI showing that they were assessable by antibody (FIG. 5).

[3] = system: human β2GPI-dependent antiphospholipid antibody; test: Micropanning of mutant domain 1 phage, patient antibodies; format: binding; details: for Micropan score: Table 7B
rabbit anti-human β2GPI = test: Micropanning of mutant domain 1 phage, rabbit antibody; format: binding; parameters: key: 0 (<10 colonies) to 4+ (confluent) semiquantitative colony score; details: for Micropan score: Table 7B; for μpan score: Table 7A
Method: Error prone PCR was carried out as follows. Domain 1 of human β2GPI was amplified by PCR under conditions that enhance the error rate of Taq polymerase. The primers were such that amino acids 1-64 were amplified. A Sfc 1 restriction site was incorporated as part of amino acid 1. At the 3′ end a Sal 1 restriction site was incorporated after amino acid 64. The PCR reaction was done as described by Leung et al. (1989) Technique 1:11, using 0.25 mM MnCl2. The PCR product was digested with Sfc 1 and Sal 1 and cloned into fd-tet-DOG2 that had been digested with Apal 1 and Sal 1. This positions domain 1 at the N-terminus of pill immediately after the pill signal sequence. The ligation reaction was electroporated in E. coli K91. Phage were harvested and titered by standard methods. Resulting phage clones were assayed using a micropanning technique.
Immulon type 2 plates were coated with protein G. Protein G was prepared at 5 μg/mL in 0.1 M NaHCO3 and 100 μL per well was added to the wells of microtitration plates and incubated overnight at 4° C. After discarding excess protein G solution from plates, each well was blocked with 200 μL 2YT for 1 hour at RT with agitation on an oscillating platform. Tris-buffered saline, pH 7.4/0.5% Tween 20 (TBS/Tween), was used with an automatic plate washer to wash the wells 4 times with 200 μL. One hundred μL human β2GPI-dependent antiphospholipid 6626, 6501, 6701, rabbit β2GPI-dependent antiphospholipid, or control normal IgG, diluted to 2.5 μg/mL with 2YT, was added to washed wells. The plate was incubated for 1 hour at room temperature on a rotating platform.
Phage to be tested by micropanning were obtained from the agar plates generated by biopanning. Each clone to be tested was transferred using sterile toothpicks to a separate well of a round-bottom 96-well microtitration plate (Corning, Corning, N.Y.) containing 200 μL 2YT/Tet per well and cultured overnight at 30° C. Following overnight incubation, phage cultures were centrifuged using a microtitration plate holder at 1300×g for 10 minutes at room temperature. Supernatants constituted the source of “neat” phage. The neat phage were diluted 1: 100-1:1000 and 100 μL was added to the plate containing protein G-bound β2GPI-dependent antiphospholipid antibody-6501 and normal IgG prepared as described above. The incubation of dilute phage with aPL antibody or control IgG was carried out for 2 hours at room temperature on a flat rotator. After 9 washes with TBS/Tween in an automated plate washer, the IgG-bound phage was eluted with 20 μL of 0.2 N HCl-glycine/0.1% BSA, pH 2.2. The elution incubation continued for 10 minutes at RT, during which time a new Corning microtitration plate was prepared containing 20 μL of freshly starved E. coli per well and kept chilled. One hundred forty μL of 29 mM Tris was added to the plate containing the phage eluates in order to neutralize the pH, following which 20 μL of phage suspension was transferred from each well to the corresponding well in the plate containing starved E. coli. After a 10 minute incubation at 37° C., 200 μL 2YT was added and incubation carried out an additional 30 minutes at 37° C. Using multichannel pipettors, 8 μL from each well was spotted on a large 2YT/Tet agar plate while retaining the original 8×12 well pattern and orientation from the last microtitration plate. After allowing the spots to dry for 30 minutes, the plate was incubated overnight at 30° C. The following day, colonies were semiquantitatively scored from 0 to 4+, with 0 symbolizing <10 colonies; 1+=10-30; 2+=30 colonies to 70% confluent; 3+=70%-90% confluent; 4+=confluent.
For Table 7A, the rabbit anti-human β2GPI was performed on two separate occasions. Mutations are listed with the original amino acid, the position number, and the identity of the amino acid at that position in the mutant. […] Non-mutated domain 1 have a score of 3+, while domain 5 phage gave a score of −. Silent mutations are not shown. […]

B1: 12---: recombinant β2GPI deletion mutant with domains 1 and 2 (protein)
chain: GRTCPKPDDLPFSTVVPLKTFYEPGEEITYSCKPGYVSRGGMRKFICPLTGLWPINTLKCTPRVCPFAGILENGAVRYTTFEYPNTISFSCNTGFYLNGADSAKCTEEGKWSPELPVCAPIIGHHHHHH
In the case of B1, the “Max (maximum inhibition observed at concentrations tested)” value ([1]; Ab 6203) is reported as 20%, the IC50 ([1]; Ab 6203) is reported as greater than 10 µM and the “Max (maximum inhibition observed at concentrations tested)” value ([1]; Ab 6501) is reported as 30%. The IC50 ([1]; Ab 6501) was greater than 10 µM, the “Max (maximum inhibition observed at concentrations tested)” value ([1]; Ab 6626) was 50% and the IC50 ([1]; Ab 6626) was greater than 10 µM. The “Max (maximum inhibition observed at concentrations tested)” value ([1]; Ab 6632) was 70%, the IC50 ([1]; Ab 6632) was 3 µM and the “Max (maximum inhibition observed at concentrations tested)” value ([1]; Ab 6644) was 45%. The IC50 ([1]; Ab 6644) was greater than 10 µM, the “Max (maximum inhibition observed at concentrations tested)” value ([1]; Ab 7008) was 40% and the IC50 ([1]; Ab 7008) was greater than 10 µM. The “Max (maximum inhibition observed at concentrations tested)” value ([1]; Ab 7015) was 30%, the IC50 ([1]; Ab 7015) was greater than 10 µM and the “Max (maximum inhibition observed at concentrations tested)” value ([1]; Ab 7101) was 20%. The IC50 ([1]; Ab 7101) was greater than 10 µM, the “Max (maximum inhibition observed at concentrations tested)” value ([1]; Ab 7104) was 90% and the IC50 ([1]; Ab 7104) was 1 µM. For the same molecule, the “Maximum O.D.” value ([2]; Ab 6203) was 0.119, the “Maximum O.D.” value ([2]; Ab 6501) was 0.028 and the “Maximum O.D.” value ([2]; Ab 6626) was 0.073. For the same molecule, the “Maximum O.D.” value ([2]; Ab 6632) was 0.016, the “Maximum O.D.” value ([2]; Ab 7008) was 0.008 and the “Maximum O.D.” value ([2]; Ab 7015) was 0.063.

B2: Dom1: phage displaying wild type (WT) domain 1 (protein)
chain: GRTCPKPDDLPFSTVVPLKTFYEPGEEITYSCKPGYVSRGGMRKFICPLTGLWPINTLKCTPRV
Work on B2 yielded a Micropan score ([3]; antibody 6226) of 4, a Micropan score ([3]; antibody 6501) of 4 and a Micropan score ([3]; antibody 6632) of 4. For the same molecule, the Micropan score ([3]; antibody 6644) was 4, the Micropan score ([3]; antibody 6701) was 4 and the Micropan score ([3]; antibody 7008) was 4. The μpan score ([3]; control phage for Table 7A, antibody not stated) was 3+ (3+=70%-90% confluent), the Micropan score (rabbit anti-human β2GPI; 1st column) was 4 and the Micropan score (rabbit anti-human β2GPI; 2nd column) was 4. For the same molecule, the Micropan score (rabbit anti-human β2GPI; 3rd column) was 4, the Micropan score (rabbit anti-human β2GPI; 4th column) was 4 and the Micropan score (rabbit anti-human β2GPI; 5th column) was 4.

B3: 3F8: phage clone, domain 1 mutant T50A (protein)
chain: GRTCPKPDDLPFSTVVPLKTFYEPGEEITYSCKPGYVSRGGMRKFICPLAGLWPINTLKCTPRV
Molecule B3 has a Micropan score ([3]; antibody 6226) of 2, a Micropan score ([3]; antibody 6501) of 2 and a Micropan score ([3]; antibody 6632) of 2. For the same molecule, the Micropan score ([3]; antibody 6644) was 3, the Micropan score ([3]; antibody 6701) was 2 and the Micropan score ([3]; antibody 7008) was 3.

B4: 2A1: phage clone, domain 1 mutant T20S (protein)
chain: GRTCPKPDDLPFSTVVPLKSFYEPGEEITYSCKPGYVSRGGMRKFICPLTGLWPINTLKCTPRV
In the case of B4, the μpan score ([3]; Table 7A, antibody 6501) is reported as 3, the μpan score ([3]; Table 7A, antibody 6626) is reported as 3 and the μpan score ([3]; Table 7A, antibody 6701) is reported as 3. The Micropan score ([3]; antibody 6226) was 4, the Micropan score ([3]; antibody 6501) was 4 and the Micropan score ([3]; antibody 6632) was 4. It also gave a Micropan score ([3]; antibody 6644) of 4, a Micropan score ([3]; antibody 6701) of 4 and a Micropan score ([3]; antibody 7008) of 4. It also gave a μpan score (rabbit anti-human β2GPI; first (or only) value) of 3, a Micropan score (rabbit anti-human β2GPI; 1st column) of 4 and a Micropan score (rabbit anti-human β2GPI; 2nd column) of 4. It also gave a Micropan score (rabbit anti-human β2GPI; 3rd column) of 4 and a Micropan score (rabbit anti-human β2GPI; 4th column) of 4.

B5: D11: phage clone, domain 1 mutant N56D (protein)
chain: GRTCPKPDDLPFSTVVPLKTFYEPGEEITYSCKPGYVSRGGMRKFICPLTGLWPIDTLKCTPRV
B5 showed a μpan score (rabbit anti-human β2GPI; first (or only) value) of 2 and a μpan score (rabbit anti-human β2GPI; second value (second occasion)) of 3.

B6: 2B2: phage clone, domain 1 mutant V37E (protein)
chain: GRTCPKPDDLPFSTVVPLKTFYEPGEEITYSCKPGYESRGGMRKFICPLTGLWPINTLKCTPRV
B6 showed a μpan score ([3]; Table 7A, antibody 6501) of 3, a μpan score ([3]; Table 7A, antibody 6626) of 3 and a μpan score ([3]; Table 7A, antibody 6701) of 3. The Micropan score ([3]; antibody 6226) was 4, the Micropan score ([3]; antibody 6501) was 4 and the Micropan score ([3]; antibody 6632) was 4. It also gave a Micropan score ([3]; antibody 6644) of 4, a Micropan score ([3]; antibody 6701) of 4 and a Micropan score ([3]; antibody 7008) of 4. It also gave a μpan score (rabbit anti-human β2GPI; first (or only) value) of 3, a Micropan score (rabbit anti-human β2GPI; 1st column) of 4 and a Micropan score (rabbit anti-human β2GPI; 2nd column) of 4. The Micropan score (rabbit anti-human β2GPI; 3rd column) was 4 and the Micropan score (rabbit anti-human β2GPI; 4th column) was 4.
